From patent publication US10336832
Values belong to the binder of their own block, whether it stands above or below them.

Key:
[1] = molecular target: human plasma kallikrein (active form, purified from human plasma and activated with factor XIIa) (human) (UniProt P03952); test: ELISA, target/background
[2] = molecular target: pKal catalytic domain Mutant 4 (human) (UniProt P03952); test: Ki,app, equilibrium, fluorogenic substrate
Sequence of pKal catalytic domain Mutant 4 (human) (P03952 other isoform, or with tags, fused parts or gaps mutant): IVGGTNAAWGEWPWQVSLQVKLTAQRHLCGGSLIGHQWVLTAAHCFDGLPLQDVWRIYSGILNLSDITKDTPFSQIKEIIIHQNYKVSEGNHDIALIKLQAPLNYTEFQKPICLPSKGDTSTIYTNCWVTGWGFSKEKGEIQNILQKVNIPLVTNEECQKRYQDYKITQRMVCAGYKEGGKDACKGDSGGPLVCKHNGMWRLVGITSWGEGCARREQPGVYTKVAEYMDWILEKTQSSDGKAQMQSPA

Sequence of human plasma kallikrein (active form, purified from human plasma and activated with factor XIIa) (human) (P03952 20-390 limits assumed, chain 1 of 2): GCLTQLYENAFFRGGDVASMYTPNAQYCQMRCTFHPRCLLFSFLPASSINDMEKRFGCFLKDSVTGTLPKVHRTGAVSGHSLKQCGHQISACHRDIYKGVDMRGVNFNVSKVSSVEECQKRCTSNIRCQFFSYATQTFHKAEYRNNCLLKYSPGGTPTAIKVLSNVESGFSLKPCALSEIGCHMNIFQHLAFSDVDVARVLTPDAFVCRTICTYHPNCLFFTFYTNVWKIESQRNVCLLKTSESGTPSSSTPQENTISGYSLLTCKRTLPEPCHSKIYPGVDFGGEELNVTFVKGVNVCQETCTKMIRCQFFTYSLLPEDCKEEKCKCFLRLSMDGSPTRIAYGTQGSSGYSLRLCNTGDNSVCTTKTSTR
Sequence of human plasma kallikrein (active form, purified from human plasma and activated with factor XIIa) (human) (P03952 391-638 limits assumed, chain 2 of 2): as the sequence (P03952 other isoform, or with tags, fused parts or gaps mutant) above, with A7S, A8S counted along it

- ELISA (T/B) [1]: 2
B1: M29-E02 (Fab, V domains shown)
VH: EVQLLESGGGLVQPGGSLRLSCAASGFTFSRYPMMWVRQAPGKGLEWVSVIYPSGGDTFYADSVKGRFTISRDNSKNTLYLQMNSLRAEDTAVYYCASGDDYLWEAAVYWGQGTLVTVSS
VL: QSVLTQPPSVSEAPRQRVTISCSGSSSNIGNNAVSWYQQLPGKAPKLLIYYDDLLPSGVSDRFSGSKSGTSASLAISGLRSEDEADYYCAAWDDSLNGFVFGTGTKVTVL

- ELISA (T/B) [1]: 1.5
B2: M28-F01 (Fab, V domains shown)
VH: EVQLLESGGGLVQPGGSLRLSCAASGFTFSVYLMHWVRQAPGKGLEWVSGISPSGGYTQYADSVKGRFTISRDNSKNTLYLQMNSLRAEDTAVYYCARPGGLDAFDIWGQGTMVTVSS
VL: DIQMTQSPSSLSASVGDRVTITCRASQSINTYLNWYQQKPGKAPKVLIHAASTLESGVPSRFSGSGSGTDFTLTISSLQPEDFATYYCQQSYSTPPTFGQGTKVEIK

- Ki [2]: 0.25 nM
B3: X101-A01 (antibody, V domains shown)
VH: EVQLLESGGGLVQPGGSLRLSCAASGFTFSHYLMTWVRQAPGKGLEWVSYISPSGGHTIYADSVKGRFTISRDNSKNTLYLQMNSLRAEDTAVYYCARVARGIAARSRTSYFDYWGQGTLVTVSS
VL: EIVLTQSPGTLSLSPGERATLSCRTSQFVNSNYLAWYQQKPGQAPRLLIYGASSRATGIPDRFSGSGSGTDFTLTISRLEPEDFAVYYCQQSSRTPWTFGQGTKVEIK
